Laboratory results from patent US20260232827A1, “ANTIBODY-DRUG CONJUGATES TARGETING NAPI2B AND METHODS OF USE” (Zymeworks BC Inc., priority 2023, published 2026).
Changes are numbered by the printed parent chain.

B1: v29453: "Representative humanized antibody variants ... of the mouse antibody" that specifically binds hNaPi2b (antibody, V domains shown)
VH: QVQLVQSGAEVKKPGASVKMSCKASGFTFTSYNVHWVRQAPGQGLEWIAAISPGNGDLSYAQKFQGRATLTVDRSTSTAYMELSSLRSEDTAVYYCARGRTGMGAVDYWGQGTLVTVSS
VL: DVQMTQSPSSLSASVGDRVTITCRASQDVYSYLNWYQQKPGKAVKLLIYYTSRLQSGVPSRFSGSGSGTDYTLTISSLQPEDFATYYCQQYNIFPWTFGQGTKLEIK
modifications: v29449, v29453, v29457 H4; v29453, v29454, v29455, v29456 L2
B2: v29460: "Representative humanized antibody variants ... of the mouse antibody" that specifically binds hNaPi2b (antibody, V domains shown)
VH: B1 VH with M20V, I48M, A49G, A68V, L70M, V72R, R74T, A79V
VL: B1 VL with V2I, V44P, Y71F
modifications: v29452, v29460 H1; v29457, v29458, v29459, v29460 L1
B3: v29454: "Representative humanized antibody variants ... of the mouse antibody" that specifically binds hNaPi2b (antibody, V domains shown)
VH: B1 VH with R74T
VL: B1 VL
modifications: v29450, v29454, v29458 H3; v29453, v29454, v29455, v29456 L2
B4: v29458: "Representative humanized antibody variants ... of the mouse antibody" that specifically binds hNaPi2b (antibody, V domains shown)
VH: B1 VH with R74T
VL: B1 VL with V2I, V44P, Y71F
modifications: v29450, v29454, v29458 H3; v29457, v29458, v29459, v29460 L1
B5: v29455: "Representative humanized antibody variants ... of the mouse antibody" that specifically binds hNaPi2b (antibody, V domains shown)
VH: B1 VH with M20V, A68V, L70M, R74T, A79V
VL: B1 VL
modifications: v29451, v29455, v29459 H2; v29453, v29454, v29455, v29456 L2
B6: v29459: "Representative humanized antibody variants ... of the mouse antibody" that specifically binds hNaPi2b (antibody, V domains shown)
VH: B1 VH with M20V, A68V, L70M, R74T, A79V
VL: B1 VL with V2I, V44P, Y71F
modifications: v29451, v29455, v29459 H2; v29457, v29458, v29459, v29460 L1
B7: v29457: "Representative humanized antibody variants ... of the mouse antibody" that specifically binds hNaPi2b (antibody, V domains shown)
VH: B1 VH
VL: B1 VL with V2I, V44P, Y71F
modifications: v29449, v29453, v29457 H4; v29457, v29458, v29459, v29460 L1
B8: v29449: "Representative humanized antibody variants ... of the mouse antibody" that specifically binds hNaPi2b (antibody, V domains shown)
VH: B1 VH
VL: B1 VL with F83I
modifications: v29449, v29453, v29457 H4; v29449 L3

test: Thermal stability by differential scanning calorimetry (DSC); format: physicochemical; conditions: 0.4 mg/mL in PBS
Procedure: The thermal stability of the humanized antibody variants was assessed by differential scanning calorimetry (DSC) as described below.
400 μL of purified samples primarily at concentrations of 0.4 mg/mL in PBS were used for DSC analysis with a VP-Capillary DSC (Malvern Panalytical Inc., Westborough, MA). At the start of each DSC run, 5 buffer blank injections were performed to stabilize the baseline, and a buffer injection was placed before each sample injection for referencing. Each sample was scanned from 20° C. to 100° C. at a 60° C./hr rate, with low feedback, 8 sec filter, 3 min pre-scan thermostat, and 70 psi nitrogen pressure. The resulting thermograms were referenced and analyzed using Origin 7 software (OriginLab Corporation, Northampton, MA) to determine melting temperature (Tm) as an indicator of thermal stability.

Row | Molecule | Fab Tm [°C]
1 | B1 | 78.9
2 | B2 | 80.3
3 | B3 | 79.7
4 | B4 | 81.6
5 | B5 | 81.5
6 | B6 | 83.1
7 | B7 | 80.5
8 | B8 | 80.0
